These results are taken from patent US20240116985A1 (published 2024).

The IC50 is the concentration that inhibits the measured activity by half.

The labels stand for the following.
B1: I-292: Ac-PL3-Asp-Ala-B5-Asp-Asp-Ala-Ala-Phe-Val-S8-Phe-Trp-Ala-NH2 (peptide)
peptide: XDAXDDAAFVXFWA
modifications: not fully specified; N-terminal Ac; PL3 at 1, B5 at 4, S8 at 11 (olefin-metathesis staples 1-4 and 4-11); C-terminal amide
notes: Stapled (stitched) peptide
B2: I-285: Ac-PL3-Asp-Ala-B5-Asp-Asp-Ala-Ala-Phe-Val-S8-His-Trp-Gln-NH2 (peptide)
peptide: XDAXDDAAFVXHWQ
modifications: not fully specified; N-terminal Ac; PL3 at 1, B5 at 4, S8 at 11 (olefin-metathesis staples 1-4 and 4-11); C-terminal amide
notes: Stapled (stitched) peptide
B3: I-291: Ac-PL3-Asp-Ala-B5-Asp-Asp-Ala-Ala-Phe-Val-S8-Phe-Trp-Ala-NH2 (peptide)
peptide: XDAXDDAAFVXFWA
modifications: not fully specified; N-terminal Ac; PL3 at 1, B5 at 4, S8 at 11 (olefin-metathesis staples 1-4 and 4-11); C-terminal amide
notes: Stapled (stitched) peptide
B4: I-286: Ac-PL3-Asp-Ala-B5-Asp-Asp-Ala-Ala-Phe-Ala-S8-Phe-Trp-Ala-NH2 (peptide)
peptide: XDAXDDAAFAXFWA
modifications: not fully specified; N-terminal Ac; PL3 at 1, B5 at 4, S8 at 11 (olefin-metathesis staples 1-4 and 4-11); C-terminal amide
notes: Stapled (stitched) peptide
B5: I-290: Ac-PL3-Asp-Ala-B5-Asp-Asp-Ala-Ala-Phe-Val-S8-Phe-Trp-NH2 (peptide)
peptide: XDAXDDAAFVXFW
modifications: not fully specified; N-terminal Ac; PL3 at 1, B5 at 4, S8 at 11 (olefin-metathesis staples 1-4 and 4-11); C-terminal amide
notes: Stapled (stitched) peptide

Starred links: 1 amine or outer side, 2 acyl side, 3 side chain; linkers in the order of their positions; H or OH if unused. Positions of bridges follow the written chain, without caps; N, C: chain ends. Non-standard residues stand in square brackets, D forms with d. Primed or numbered codes have the meaning given here. B5(17) = 2,2-bis(4-pentenyl)glycine = 2-amino-2-(pent-4-en-1-yl)hept-6-enoic acid, stitching residue, C=CCCCC(CCCC=C)(N[*:1])C(=O)[*:2]; B5(4) = 2,2-bis(4-pentenyl)glycine = 2-amino-2-(pent-4-en-1-yl)hept-6-enoic acid (stitching residue), C=CCCCC(CCCC=C)(N[*:1])C(=O)[*:2]; Phe(3,4-F2) = N[C@@H](Cc1ccc(F)c(F)c1)C(=O)O; Phe(3-F) = N[C@@H](Cc1cccc(F)c1)C(=O)O; Phe(4-F) = N[C@@H](Cc1ccc(F)cc1)C(=O)O; 1Nal = N[C@@H](Cc1cccc2ccccc12)C(=O)O; αAllylPro = C=CC[C@@]1(C(=O)O)CCCN1; 2Pal = N[C@@H](Cc1ccccn1)C(=O)O; 3Pal = N[C@@H](Cc1cccnc1)C(=O)O; S8 = C=CCCCCCC[C@](C)(N)C(=O)O

The test deals with T1, beta-catenin, full-length (Uniprot ID P35222) (Homo sapiens (Human), UniProt P35222 2-781).
T1 construct: tags are not described; also called bCat; B-Catenin
T1 sequence: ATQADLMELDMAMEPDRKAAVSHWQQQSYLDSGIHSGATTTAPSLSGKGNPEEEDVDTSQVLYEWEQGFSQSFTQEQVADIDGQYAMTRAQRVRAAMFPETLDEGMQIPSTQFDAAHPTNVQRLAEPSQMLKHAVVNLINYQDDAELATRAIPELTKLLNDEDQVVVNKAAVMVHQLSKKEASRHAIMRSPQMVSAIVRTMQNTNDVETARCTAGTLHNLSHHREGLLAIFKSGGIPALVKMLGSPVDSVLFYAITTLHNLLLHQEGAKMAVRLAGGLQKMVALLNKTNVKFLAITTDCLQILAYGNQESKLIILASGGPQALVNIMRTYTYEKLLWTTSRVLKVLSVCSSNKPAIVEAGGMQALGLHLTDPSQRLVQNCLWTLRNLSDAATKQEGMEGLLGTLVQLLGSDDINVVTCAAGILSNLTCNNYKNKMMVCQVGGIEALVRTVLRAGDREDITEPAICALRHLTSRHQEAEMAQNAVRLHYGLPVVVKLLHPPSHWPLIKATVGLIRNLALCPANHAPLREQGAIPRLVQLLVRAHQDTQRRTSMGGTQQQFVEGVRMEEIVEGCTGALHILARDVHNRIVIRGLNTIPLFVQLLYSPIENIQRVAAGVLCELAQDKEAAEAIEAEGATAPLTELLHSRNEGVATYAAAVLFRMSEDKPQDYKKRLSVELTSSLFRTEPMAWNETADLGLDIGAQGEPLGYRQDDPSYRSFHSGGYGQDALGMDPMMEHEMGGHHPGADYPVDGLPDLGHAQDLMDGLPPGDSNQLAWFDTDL
Briefly: fluorescence polarization competition, displacement of 5FAM-TCF4 10-53 from full-length beta-catenin. Here is the method: The plate was incubated protected from light for 60 minutes at 20° C. prior to read. Reads were performed on a CLARIOstar plate reader (BMG Labtech) in duplicate, and data were fitted to a 1:1 binding model with hill slope using an in-house script. All provided concentrations are final concentrations.
(In general: In fluorescence polarisation assays a small probe gives low polarisation when free and higher when bound to something large.)
With Ac-[αAllylPro]DA[B5(4)]DDAAFV[S8][1Nal]WQ-NH2 (staple 1-4, 4-11; also: later-eluting HPLC staple isomer, Stapled (stitched) peptide) [I-276: Ac-PL3-Asp-Ala-B5-Asp-Asp-Ala-Ala-Phe-Val-S8-1NapA-Trp-Gln-NH2], the IC50 was found to be 3.43 µM.
Then Ac-[αAllylPro]DA[B5(17)]DDAA[Phe(3,4-F2)]V[S8]FWQ-NH2 (staple 1-4, 4-11, Stapled (stitched) peptide) [I-267: Ac-PL3-Asp-Ala-B5-Asp-Asp-Ala-Ala-34FF-Val-S8-Phe-Trp-Gln-NH2], with 5 µM; and Ac-[αAllylPro]DA[B5(17)]D[2Pal]AAFV[S8]FWQ-NH2 (staple 1-4, 4-11, Stapled (stitched) peptide) [I-270: Ac-PL3-Asp-Ala-B5-Asp-2PyrA-Ala-Ala-Phe-Val-S8-Phe-Trp-Gln-NH2], with 5 µM.
Ac-[αAllylPro]DA[B5(4)]DDAA[Phe(3-F)]V[S8]FWQ-NH2 (staple 1-4, 4-11; also: staple isomer composition, later HPLC peak, Stapled (stitched) peptide) [I-265: Ac-PL3-Asp-Ala-B5-Asp-Asp-Ala-Ala-3FF-Val-S8-Phe-Trp-Gln-NH2] registered a half-maximal inhibitory concentration (IC50) of 3.76 µM. This IC50 and that of the molecule before are within 1.5-fold of each other.
Then B1, with 1.87 µM.
To B2 belongs 5 µM.
To B3 belongs 3.13 µM.
Molecule B4 yielded an IC50 of 4.48 µM.
To Ac-[αAllylPro]DA[B5(17)]D[3Pal]AAFV[S8]FWQ-NH2 (staple 1-4, 4-11, Stapled (stitched) peptide) [I-271: Ac-PL3-Asp-Ala-B5-Asp-3PyrA-Ala-Ala-Phe-Val-S8-Phe-Trp-Gln-NH2] belongs 5 µM.
Molecule Ac-[αAllylPro]DA[B5(4)]DDAAFV[S8][1Nal]WQ-NH2 (staple 1-4, 4-11; also: earlier-eluting HPLC staple isomer, Stapled (stitched) peptide) [I-275: Ac-PL3-Asp-Ala-B5-Asp-Asp-Ala-Ala-Phe-Val-S8-1NapA-Trp-Gln-NH2] gave an IC50 of 5 µM.
In turn, Ac-[αAllylPro]DA[B5(17)]DDAA[Phe(4-F)]V[S8]FWQ-NH2 (staple 1-4, 4-11, Stapled (stitched) peptide) [I-266: Ac-PL3-Asp-Ala-B5-Asp-Asp-Ala-Ala-4FF-Val-S8-Phe-Trp-Gln-NH2] yielded an IC50 of 5 µM.
Regarding B5, the IC50 was found to be 3.29 µM. This IC50 lies about 1.5-fold lower than the previous one.
